Experimental data taken from patent publication US20190161544A1 (SUNSHINE GUOJIAN PHARMACEUTICAL SHANGHAI, published 2019).
Blank lines part the entries; values can stand above or below the binder they belong to.

What was measured:
[1] = biological target: T1, recombinant human IL-17A (purchased from R&D Systems) (human, UniProt Q16552 24-155); test: cell-based or functional assay
[2] = biological target: T2, hIL-17A (analyte of the Biacore assay) (human, UniProt Q16552 24-155); test: SPR, Biacore T200: antibody captured on Protein A/G, hIL-17A as analyte
T2 construct: The Biacore method says only 'hIL-17A'; also called human IL-17A
T2 sequence (Q16552 24-155 limits assumed): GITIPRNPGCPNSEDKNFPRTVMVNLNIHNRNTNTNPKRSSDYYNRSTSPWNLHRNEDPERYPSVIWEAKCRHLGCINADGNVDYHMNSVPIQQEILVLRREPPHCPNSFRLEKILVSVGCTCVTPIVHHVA
Description: (§1) The specific experimental method was as follows: Amine Coupling Kit (GE healthcare) was used to activate CM5 sensor chips (GE healthcare) and recombinant Protein A/G (Thermo Pierce) was immobilized on the chip with an amount of 2000 RU. FC3 (Flow cell 3) was a reference channel, and FC4 (Flow cell 4) was a sample channel. […] The cycling conditions were as follows: the analyte was injected at 50 μl/min for 4 min in all channels of the FCs, the dissociation time was 20 min, and 6M guanidine hydrochloride (National Pharmaceutical Group Chemical Reagent Co., Ltd.) was injected at a rate of 10 μl/min for 30 s to surface regeneration. Then, difference between the signals of the captured antibodies and antibody-free controls were adopted to calculate binding kinetics and affinities using Biacore T200 Evaluation Software Ver 1.0.

[3] = biological target: T2, hIL-17A (analyte of the Biacore assay); test: SPR, Biacore (as in Example 6): antibody captured, hIL-17A as analyte
Description: as §1

[4] = biological target: T1, recombinant human IL-17A (purchased …); test: cell-based or functional assay; remark: listed apart in the source

T1 sequence (Q16552 24-155 limits assumed): as above

IC50(pM), inhibition of IL-17A-induced IL-6 secretion from Hela cells, Experiment 1 [1]: 21.9 pM | IC50(pM), inhibition of IL-17A-induced IL-6 secretion from Hela cells, Experiment 2 [1]: 27.4 pM | IC50(pM), inhibition of IL-17A-induced IL-6 secretion from Hela cells, Experiment 3 [1]: 50.7 pM | Kd [2]: 63.7 pM | koff [2]: 3.28e-05 s⁻¹ | kon [2]: 515000 M⁻¹ s⁻¹ | Kd [3]: 41.1 pM | koff [3]: 9.45e-05 s⁻¹ | kon [3]: 2.3e+06 M⁻¹ s⁻¹ | IC50, inhibition of IL-17A-induced IL-6 secretion from Hela cells [4]: 60.6 pM
B1: Ixekizumab (antibody, V domains shown)
VH: QVQLVQSGAEVKKPGSSVKVSCKASGYSFTDYHIHWVRQAPGQGLEWMGVINPMYGTTDYNQRFKGRVTITADESTSTAYMELSSLRSEDTAVYYCARYDYFTGTGVYWGQGTLVTVSS
VL: DIVMTQTPLSLSVTPGQPASISCRSSRSLVHSRGNTYLHWYLQKPGQSPQLLIYKVSNRFIGVPDRFSGSGSGTDFTLKISRVEAEDVGVYYCSQSTHLPFTFGQGTKLEIKR

Kd [2]: 0.299 pM | koff [2]: 6.08e-08 s⁻¹ | kon [2]: 204000 M⁻¹ s⁻¹ | IC50, inhibition of IL-17A-induced IL-6 secretion from Hela cells [4]: 30.5 pM
B2: murine anti-human IL-17A monoclonal antibody No.120 (antibody, V domains shown)
VH: EVKLVESGGGLVRPGGTLKLSCAASGFTFSSFDMSWGRQTPEKRLEWVAFMSSGGSTYYPDSVKGRFTISRDNVRNILYLQMISLRSEDTAMYYCARGERYGSYWGQGTLVTVSA
VL: DIQMTQSSSYLSVSLGGRVTITCKASDHINNWLAWYQQKPGNAPRLLISGATSLETGVPSRFSGSGSGKDYTLSITSLQTEDVATYYCQQYWSTPFTFGSGTKLEIK
notes: also called No.120 antibody; murine 120 antibody

IC50(pM), inhibition of IL-17A-induced IL-6 secretion from Hela cells, Experiment 1 [1]: 14.7 pM | IC50(pM), inhibition of IL-17A-induced IL-6 secretion from Hela cells, Experiment 2 [1]: 22 pM | IC50(pM), inhibition of IL-17A-induced IL-6 secretion from Hela cells, Experiment 3 [1]: 44.6 pM | Kd [3]: < 1 pM | koff [3]: < 1e-05 s⁻¹ | kon [3]: 445000 M⁻¹ s⁻¹
B3: humanized anti-human IL-17A monoclonal antibody 120-Hu (antibody, human IgG1, kappa, V domains shown)
VH: EVQLVESGGGLVQPGGSLRLSCAASGFTFSSFDMSWGRQAPGKRLEWVAFMSSGGSTYYPDSVKGRFTISRDNSKNTLYLQMNSLRAEDTAVYYCARGERYGSYWGQGTLVTVSS
VL: DIQMTQSPSSLSASVGDRVTITCKASDHINNWLAWYQQKPGKAPKLLISGATSLETGVPSRFSGSGSGTDYTLTISSLQPEDFATYYCQQYWSTPFTFGSGTKLEIKR
notes: Human IgG1; also called 120-Humanization; humanized 120 antibody
